Laboratory results: patent publication US7951917 (Genentech, dated 2011)

Biological target: T1, human thrombopoietin receptor, c-Mpl (human, UniProt P40238 26-491)
T1 construct: extracellular domain; Antigen of the library panning; also called MPL (human thrombopoietin receptor tyrosine kinase ECD)
T1 sequence (looked up): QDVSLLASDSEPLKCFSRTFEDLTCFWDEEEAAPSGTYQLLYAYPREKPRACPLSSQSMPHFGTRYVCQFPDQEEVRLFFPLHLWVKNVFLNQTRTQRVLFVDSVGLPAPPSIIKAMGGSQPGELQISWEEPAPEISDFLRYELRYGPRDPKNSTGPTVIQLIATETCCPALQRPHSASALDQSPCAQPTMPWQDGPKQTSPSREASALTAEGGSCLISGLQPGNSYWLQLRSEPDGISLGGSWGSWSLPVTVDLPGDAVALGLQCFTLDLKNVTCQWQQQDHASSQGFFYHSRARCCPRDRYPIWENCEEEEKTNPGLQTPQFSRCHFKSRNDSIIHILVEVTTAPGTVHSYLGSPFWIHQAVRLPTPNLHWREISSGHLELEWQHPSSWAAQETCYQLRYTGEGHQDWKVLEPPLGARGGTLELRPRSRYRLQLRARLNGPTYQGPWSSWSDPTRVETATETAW
Test: scFv from panning of a human scFv phage library

B1: anti-Mpl scFv, 12B5 (scFv)
scFv: QVQLVQSGGGLVRPGGSLSLSCAVSGITLRTYGMHWVRQAPGKGLEWVAGISFDGRSEYYADSVQGRFTISRDSSKNTLYLQMNSLRAEDTAVYYCARGAHYGFDIWGQGTMVTVSSGGGGTGGGGSGGGGSDIQMTQSPSTLSASIGDRVTITCRASEGIYHWLAWYQQKPGKAPKLLIYKASSLASGAPSRFSGSGSGTDFTLTISSLQPDDFATYYCQQYSNYPLTFGGGTKLEIK
  binding result: binds
